The values that follow come from publication PMC7503452.

Among the targets are A3H Hap II (human, UniProt Q6NTF7 1-181, G105R;K121D;E178D); A3H Hap I K117E (human, UniProt Q6NTF7 1-200, K117E); A3H Hap I K117E/K121E (human, UniProt Q6NTF7 1-200, K117E;K121E); A3H Hap VII (human, UniProt Q6NTF7 1-200, G105R).
Assay in all cases: fluorescence anisotropy
In general terms: Polarisation of emitted light reports the rotation of a fluorescent probe.

A3H Hap I K117E/K121E, sequence (Q6NTF7 whole entry K117E/K121E): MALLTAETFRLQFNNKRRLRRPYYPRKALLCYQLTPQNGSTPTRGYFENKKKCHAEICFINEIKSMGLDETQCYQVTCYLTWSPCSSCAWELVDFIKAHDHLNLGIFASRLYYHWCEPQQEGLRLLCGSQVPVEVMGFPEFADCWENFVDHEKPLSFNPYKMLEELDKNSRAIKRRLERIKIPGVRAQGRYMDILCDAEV
A3H Hap I K117E, sequence (Q6NTF7 whole entry K117E): as the sequence (Q6NTF7 whole entry K117E/K121E) above, with E121K counted along it
A3H Hap II, sequence (Q6NTF7 1-181 G105R/K121D/E178D): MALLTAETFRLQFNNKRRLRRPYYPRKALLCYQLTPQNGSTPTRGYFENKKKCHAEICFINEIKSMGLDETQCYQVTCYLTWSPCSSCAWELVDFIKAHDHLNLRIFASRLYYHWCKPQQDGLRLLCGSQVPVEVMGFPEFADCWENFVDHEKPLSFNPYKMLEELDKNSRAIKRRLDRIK
A3H Hap VII, sequence (Q6NTF7 whole entry G105R): as the sequence (Q6NTF7 whole entry K117E/K121E) above, with G105R, E117K, E121K counted along it

B1: 118-nt ssDNA (ssDNA)
DNA: GAATATAGTTTTTAGCTCAAAGTAAGTGAAGATAATTTAGAGAGTTGTAATGTGATATATGTGTATGAAAGATATAAGACTCAAAGTGAAAAGTTGTTAATGTGTGTAGATATGTTAA
modifications: internal fluorescein-dT at position 37
On to B1, for which the dissociation constant Kd – broadly, the free concentration of one partner at which half of the binding sites on the other are occupied at equilibrium, for simple one-to-one binding – in the series with A3H Hap II amounted to 492 ± 28 nM; with A3H Hap I K117E it was 3000 ± 1770 nM; with A3H Hap I K117E/K121E, 1240 ± 88 nM; with A3H Hap VII, 522 ± 4 nM.
